# According to US20090203610A1, “METHODS OF TREATING OBESITY OR DIABETES USING NT-4/5” (RINAT NEUROSCIENCE CORPORATION, priority 2004, published 2009):
# What was measured:
# db/db mice [1] = assay: Heart and gastrocnemius muscle weight in db/db mice (Example 1); conditions: day 28; NT-4/5 20 mg/kg s.c., Rosiglitazone 3 mg/kg p.o.
# Protocol: Test animals: 24 female 10-12 weeks old db/db mice (C57BL/Ks J Rj-db/db, Janvier, France), weighing in the target range of 40-50 g, were used in this study. These mice were housed in a temperature (19.5-24.5° C.) and relative humidity (45-65%) controlled room with a 12-hour light/dark cycle, with ad libitum access to filtered tap-water and irradiated pelleted laboratory chow (SAFE, France) throughout the study. Upon receipt at animal facilities, they were housed 4 per cage covered with filtered caps and at least a 5-day acclimation period was observed.
# The mice were divided into three groups of 8 mice each (groups 1-3). Each group was treated with vehicle (PBS) subcutaneously (s.c.), 3 mg/kg Rosiglitazone orally (p.o.), or 20 mg/kg NT-4/5 subcutaneously (s.c.). From day 1 to day 5 (T1-T5) and then from day 8 to day 12 (T8-T12), the mice in groups 2 and 3 were dosed once daily for 5 consecutive days, with a volume of 10 ml/kg.
# Heart weight and gastrocnemius weight were measured on day 28 for vehicle, Rosiglitazone, and NT-4/5 treated mice.
# human TrkA = biological target: T1, human TrkA (Homo sapiens, UniProt P04629); assay: Receptor tyrosine phosphorylation in trkA expressing cell line; type: cell-based
# T1 construct: expressed in transfected cells
# Excerpt: (§1) Assays of TrkB specific activation by pegylated NT-4/5: Stable cell lines expressing human TrkA, TrkB or TrkC were used to determine the functional activity, i.e. receptor phosphorylation, of NT-4/5 and pegylated NT-4/5 as previously described (Sadick et al. Experimental Cell Research 234: 354-361, 1997).
# as §1, with “and different forms of” for “and”
# [2] = system: NONcNZO-10 polygenic obese and diabetic mice; assay: Body weight and food intake in NONcNZO-10 mice (Example 3); type: in vivo
# Excerpt: Test animals: 19 male NONcNZO-10 polygenic obese and diabetic mice from Jackson Laboratory (See Leiter et al., Diabetes 53 (Suppl. 1): S4-S11, 2004) at 9 weeks of age weighing in the range of 28-35 g were used in this study.
# Administration of NT-4/5: NT-4/5 was obtained from Genentech Inc.
# The mice were divided into 3 groups of equivalent body weight and baseline glucose distribution (6-7 mice per group). […] Seven days before starting the treatment (day −7), blood samples were collected from the mice as described previously for the determination of baseline levels of blood glucose and triglyceride. After the treatment started, blood samples were collected weekly to determine glucose and triglyceride levels as described in previous examples. Body weight and food intake were monitored 5 days a week through out the entire study.
# [3] = Serum half life after single subcutaneous dose in db/db mice (Example 7); type: in vivo; conditions: single subcutaneous dose of 4 mg/kg in db/db mice; estimated
# Excerpt: In addition, pegylated NT-4/5 has extended half life in vivo.
# human TrkB = biological target: T2, human TrkB (Homo sapiens, UniProt Q16620); assay: Receptor tyrosine phosphorylation (KIRA) in TrkB expressing cell line; type: cell-based
# T2 construct: expressed in transfected cells
# db/db mice [4] = assay: Body weight after single injection of NT-4/5 or pegylated NT-4/5 in db/db mice (Example 7, Table 21); type: in vivo; conditions: for Body weight expressed in percentage of baseline value: single 5 mg/kg dose on day 1
# Protocol: Test animals: 30 female db/db mice at 7 weeks of age weighing in the range of 27-34 g were used in this study.
# Administration of NT-4/5 and pegylated NT-4/5: Wild type NT-4/5 was obtained from Genentech Inc. The mice were divided into 5 groups of equivalent body weight distribution (6 mice per group). Each group received on the first day (day 1) of the study one and the only dose of either vehicle, 5 mg/kg of NT-4/5 produced as described above, 5 mg/kg of 2PEG-NT4-G1S, or 5 mg/kg of 1PEG-NT4-G1S. 2PEG-NT4-G1S represents one PEG molecule was conjugated to each NT-4/5 monomer in a NT-4/5 dimer, and 1PEG-NT4-G1S represents one PEG molecule was conjugated to only one monomer of the NT-4/5 dimer. 2PEG-NT4-G1S and 1PEG-NT4-G1S were separated by ion exchange. Four days before starting the treatment (day −4), blood samples were collected from the mice as described previously for the determination of baseline levels of serum glucose. On day 4 after the treatment started, blood samples were collected again to determine serum glucose level. Body weight and food intake were monitored 5 days a week through out the entire study.
# DIO mice = assay: Body weight, food intake, body composition and bone density (PIXImus) in DIO mice (Example 9); type: in vivo
# Excerpt: Test animals: Mice with diet induced obesity (DIO) were used in this study. 29 male C57BL/6J mice were weaned at 4 weeks of age. Immediately after weaning they were put on 58% high fat diet (D12331i, Research Diet) through out the study. The DIO mice at 13 weeks of age weighing in the range of 28-40 g were used in this study.
# Administration of NT-4/5: NT-4/5 was obtained from Genentech Inc. or produced as described in U.S. Pat. No. 6,184,360. The mice were divided into 2 groups of equivalent body weight distribution (8 mice per group). The mice were acclimated individually in the Comprehensive Cage Monitoring System (CCMS, Columbus Instruments) for 2 days, in preparation for the indirect calorimetry, before the treatment started. Each group received 5 daily subcutaneous doses of either vehicle or 10 mg/kg of NT-4/5, respectively. Body weight and food intake were monitored 5 days per week through out the entire study. The CCMS monitoring and data analysis of oxygen consumption and carbon dioxide production were carried out according published and commonly accepted protocols as described at website of Jackson Laboratory. The body composition, i.e. percent lean body mass, fat content, and bone density was determined the day both before treatment started (day 0) and the final day of treatment (day 5) with a PIXImus Mouse Densitometer (GE Lunar Medical Systems, Madison, Wis.) using software version 1.46. Brommage et al., Am. J. Physiol. Endocrinol. Metab. 285: 454-459 (2003).
# [5] = 2 or 10 mg/kg s.c. daily, dose dependent
# T1 sequence (P04629 33-796): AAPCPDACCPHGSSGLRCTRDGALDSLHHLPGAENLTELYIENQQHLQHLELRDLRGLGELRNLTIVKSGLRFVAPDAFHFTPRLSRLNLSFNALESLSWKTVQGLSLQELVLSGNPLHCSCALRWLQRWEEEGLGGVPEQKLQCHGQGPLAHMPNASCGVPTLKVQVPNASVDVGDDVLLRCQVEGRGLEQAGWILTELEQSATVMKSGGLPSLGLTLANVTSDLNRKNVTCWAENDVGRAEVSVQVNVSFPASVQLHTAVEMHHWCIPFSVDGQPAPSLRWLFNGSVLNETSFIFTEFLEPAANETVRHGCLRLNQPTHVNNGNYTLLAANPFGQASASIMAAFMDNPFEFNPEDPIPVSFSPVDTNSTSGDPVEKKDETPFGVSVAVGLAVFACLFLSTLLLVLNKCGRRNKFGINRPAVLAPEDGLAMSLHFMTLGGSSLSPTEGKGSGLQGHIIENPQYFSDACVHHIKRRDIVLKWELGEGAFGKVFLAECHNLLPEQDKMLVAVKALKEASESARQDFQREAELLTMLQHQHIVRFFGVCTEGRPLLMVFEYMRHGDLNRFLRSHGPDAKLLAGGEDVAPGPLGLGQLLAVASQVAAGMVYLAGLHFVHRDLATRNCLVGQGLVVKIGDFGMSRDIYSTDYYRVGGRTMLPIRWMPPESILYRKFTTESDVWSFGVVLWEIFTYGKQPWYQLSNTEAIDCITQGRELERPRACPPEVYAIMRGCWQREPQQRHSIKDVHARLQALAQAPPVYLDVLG
# T2 sequence (Q16620 32-822): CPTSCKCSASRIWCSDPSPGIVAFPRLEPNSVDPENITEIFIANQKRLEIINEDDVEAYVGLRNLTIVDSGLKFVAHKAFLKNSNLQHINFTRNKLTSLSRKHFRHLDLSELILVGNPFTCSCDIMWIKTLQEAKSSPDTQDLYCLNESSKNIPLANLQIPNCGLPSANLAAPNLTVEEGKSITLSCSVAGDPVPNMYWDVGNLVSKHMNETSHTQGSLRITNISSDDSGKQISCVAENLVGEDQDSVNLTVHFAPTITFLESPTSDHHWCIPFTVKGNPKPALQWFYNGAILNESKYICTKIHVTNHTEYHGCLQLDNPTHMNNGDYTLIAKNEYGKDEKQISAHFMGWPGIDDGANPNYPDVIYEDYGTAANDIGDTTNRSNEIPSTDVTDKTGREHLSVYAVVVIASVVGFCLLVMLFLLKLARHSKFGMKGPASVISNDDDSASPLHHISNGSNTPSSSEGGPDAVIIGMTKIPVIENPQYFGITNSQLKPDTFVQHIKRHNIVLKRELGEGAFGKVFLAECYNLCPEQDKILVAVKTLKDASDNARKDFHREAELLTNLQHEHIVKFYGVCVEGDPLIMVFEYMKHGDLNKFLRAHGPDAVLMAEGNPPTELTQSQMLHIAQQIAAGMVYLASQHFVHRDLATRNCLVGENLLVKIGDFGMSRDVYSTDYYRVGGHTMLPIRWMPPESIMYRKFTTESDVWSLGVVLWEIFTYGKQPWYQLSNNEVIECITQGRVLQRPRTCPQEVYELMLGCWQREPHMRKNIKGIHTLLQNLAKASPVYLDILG
molecule,measurement,setting,value
"CN(CCOc1ccc(CC2SC(=O)NC2=O)cc1)c1ccccn1 (centres unmarked) [Rosiglitazone, reference compound]",Gastrocnemius weight,db/db mice [1],0.074 g
same,Heart weight,db/db mice [1],0.114 g
"NT-4/5: mature human neurotrophin-4/5 (SEQ ID NO:1), obtained from Genentech or produced in E. coli (protein, listed as Homo sapiens) GVSETAPASRRGELAVCDAVSGWVTDRRTAVDLRGREVEVLGEVPAAGGSPLRQYFFETRCKADNAEEGGPGAGGGGCRGVDRRHWVSECKAKQSYVRALTADAQGRVGWRWIRIDTACVCTLLSRTGRA",receptor tyrosine phosphorylation of trkA-expressing cell line,human TrkA,did not increase receptor tyrosine phosphorylation
same,body weight,[2]; [5],reduced body weight
same,food intake,[2]; [5],reduced
same,rebound hyperphagia or rebound body weight gain,[2]; 30 days after the treatment was terminated,No rebound hyperphagia or rebound body weight gain/overshoot was observed
same,serum half life,[3],41 to 52 min
same,receptor tyrosine phosphorylation of TrkB-expressing cell line,human TrkB,increased receptor tyrosine phosphorylation
same,Body weight expressed in percentage of baseline value,db/db mice [4]; Day 1,100.0 % of baseline
same,Body weight expressed in percentage of baseline value,db/db mice [4]; Day 2,97.7 % of baseline
same,Body weight expressed in percentage of baseline value,db/db mice [4]; Day 3,100.5 % of baseline
same,Body weight expressed in percentage of baseline value,db/db mice [4]; Day 4,101.7 % of baseline
same,body weight growth,"db/db mice [4]; single subcutaneous injection, 5 mg/kg, significantly",reduced the body weight growth
same,body fat content,DIO mice; 10 mg/kg s.c. daily,significantly reduced
same,body weight,DIO mice; 10 mg/kg s.c. daily,significantly reduced
same,food intake,DIO mice; 10 mg/kg s.c. daily,significantly reduced
same,lean body mass,DIO mice; 10 mg/kg s.c. daily,but not the lean body mass
same,Bone mineral density (mean±SEM),"DIO mice; day 0, 10 mg/kg group",0.5235±0.0158 g/cm^2
same,Bone mineral density (mean±SEM),"DIO mice; day 5, 10 mg/kg s.c. daily",0.5452±0.0142 g/cm^2
same,bone density versus vehicle,"DIO mice; day 5, P<0.05",significantly different from that of the vehicle
